Drawing on patent US20160290995A1, “METHODS OF SELECTING AKT AGONISTS OR ANTAGONISTS” (OREGON HEALTH & SCIENCE UNIVERSITY, priority 2015, published 2016), this text covers decrease in responses to sub-maximal concentrations of PDGF-BB (relative nuclear intensity of the FoxO1-clover reporter in C3H10T1/2 cells) for one substance.

This assay has as its target PDGF-α receptor, endogenous on C3H10T1/2 mouse embryonic fibroblasts (mouse) (UniProt P26618). In words: cell-based or functional assay.

Chain of PDGF-α receptor, endogenous on C3H10T1/2 mouse embryonic fibroblasts (mouse) (P26618 25-1089): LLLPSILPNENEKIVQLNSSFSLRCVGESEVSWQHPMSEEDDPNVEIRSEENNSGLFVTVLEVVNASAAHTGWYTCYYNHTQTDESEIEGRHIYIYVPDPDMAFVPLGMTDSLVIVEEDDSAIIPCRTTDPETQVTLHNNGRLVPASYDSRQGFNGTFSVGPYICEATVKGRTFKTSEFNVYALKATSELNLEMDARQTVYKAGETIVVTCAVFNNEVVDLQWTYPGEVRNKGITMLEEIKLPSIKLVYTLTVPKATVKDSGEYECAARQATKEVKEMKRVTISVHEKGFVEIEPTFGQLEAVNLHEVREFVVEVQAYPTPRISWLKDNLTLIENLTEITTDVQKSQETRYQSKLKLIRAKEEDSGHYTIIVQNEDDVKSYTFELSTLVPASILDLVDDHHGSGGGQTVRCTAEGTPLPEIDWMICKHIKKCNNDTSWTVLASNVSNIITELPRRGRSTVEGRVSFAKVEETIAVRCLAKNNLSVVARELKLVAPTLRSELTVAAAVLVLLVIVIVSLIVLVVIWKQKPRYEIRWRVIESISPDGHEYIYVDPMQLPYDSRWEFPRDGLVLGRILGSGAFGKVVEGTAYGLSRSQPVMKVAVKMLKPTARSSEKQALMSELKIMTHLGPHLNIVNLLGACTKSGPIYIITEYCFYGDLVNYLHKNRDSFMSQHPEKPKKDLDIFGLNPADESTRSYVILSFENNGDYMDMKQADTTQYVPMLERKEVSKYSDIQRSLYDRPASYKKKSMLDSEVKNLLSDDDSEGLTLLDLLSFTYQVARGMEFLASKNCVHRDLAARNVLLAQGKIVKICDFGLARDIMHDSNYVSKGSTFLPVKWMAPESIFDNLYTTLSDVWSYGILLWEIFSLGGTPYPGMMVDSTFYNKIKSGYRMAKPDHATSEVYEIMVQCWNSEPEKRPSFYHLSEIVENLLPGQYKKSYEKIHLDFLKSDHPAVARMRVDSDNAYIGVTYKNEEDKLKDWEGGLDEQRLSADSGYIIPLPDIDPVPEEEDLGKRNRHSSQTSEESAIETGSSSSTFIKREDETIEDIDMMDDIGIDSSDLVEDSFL

As for “neutralizing antibody to the PDGF-α receptor (#AF1062, R&D Systems)”, the decrease in responses to sub-maximal concentrations of PDGF-BB (relative nuclear intensity of the FoxO1-clover reporter in C3H10T1/2 cells) is 10%.
